This note sets out measurements from the DeepSol protein solubility set.

The nature of this series: soluble on expression in E. coli; label from the status in PepcDB or PDB records.
Turning to “MSLGSKIVVTGATGNVGTSVVRLLSEDPEVGTVLGLARRIPDWSPAKTEWAAVDLASEQSDLTSHFADADAVVHLAWAFQPTHDPATTWRTNVLGSIRVFEAVAAAGVPALVHASSVGAYSPGPKNHAVDESWPTHGWPDAAYCREKAYLERALDTFERDHPGIRVVRMRPAFLFKRESASEQRRIFGGRFLPGPAARPELLPFLPDVPGLRVQALHTDDAARAYRLAVRSADARGAFNLAAEPPVDAELLGELLGVRPVRLPRAAARSAIAAAWGMRLLPASPHLFDAVLRLPVMDCTRARVELGWGATRTATEVLEEFLRGLRQGAGADTEGHHHHHH”, the “soluble on expression in E. coli” value is reported as “soluble”. “MSLGSMGFIESEVAVVYGRIVEGFRAPYKEDLYFKTVIVPGFSDGHMHTQVVDAGLEPSRVWSNSYEWLETRRLRVDEAAVRSDLDLSSRLAAAAFSRSLLEGVTLVAATGRLSANVRGWLSLTSRPRAIFLPTVMDRAGWPSIREVEVEIERLEGLLRDGLAKIGVFVHSLGTAKPESVRRALQTAARRRSIMGMHLSEGLPEAGRLVDVLGRGPYPARIVAVHCMEVEDLPTGVRCVSCPASNQILYRRTRPTLEGVDGFGSDWPLLIGTIARHLPLINKLYPGRLQEILYKATIGGYRAYLALHDGDFVAYDASLEDVLAGRALPVWVSVAGKPAVVEGRLSGSGYGYGEVLSIIRRLIKEALEKHGDGSLPYIPDVESMYEASLALEGGPRSEGHHHHHH”: the “soluble on expression in E. coli” value is reported as “not soluble”. With “MSLGTDLLESGEGNKYLVVEKHLKQAINGGVYQADDRLPSIRSLSQELNVSKNTVIRAYQELEAQNLVYSVPKSGYRVKVALPTSRSIPDPTRVDLLSICKEILTYPEYQERLPAGSAHPNIDSPAIKSLYAEIGRHSRQQTHVPSHYQLPPGDHLLIKQLAKITQDLGTPAKLDEIMVTHGAQQAISLALRATTQKGDIVAVESPCYFGNLLMLESLGLKVVEIPSCPRDGMCPEALAKTMATWDIKALIVTPNFTNPTGAMMPLEKRQQLLLASGNIPIIEDDVFGGLSYDKPLPSLSLLDDKQRVIYVNSLSKTLDSRLRIGWMLAGRYRDQIEQYLLCENMGSLNLMQSAVATFLTSGKYRTHTARMGRVYQNNMRRFIQMLHQYLDEYESLKNRYQINAVQGSFLLWLRLPEDTDSYALYQACNKHRISLLPGTVFGTQEQYRHCVRLSVANFGHETDWSHAMQTLAKLIAKRVCEGHHHHHH” the entry was “not soluble”; with “MSLGTGRNGGRAIVATGLGQCCWDTLAVVDSYPSPDSKAEAAVWAEQAGGPTATALVALARLGIPCRFAGVVGDDDAGSRIRQALDSEGVDGAFLVTRRRGASQRAFIMIERGSGRRTIVWRRPTGDPLDPREVPDAFLAGSSLLLLDGLMADASLHAAGRARSLGIPVMVDAGRMRPGMLDITRQCDYVVAAEQFFLDLGWDRTPEHFRGLAADLGAPVVTVTLGAAGSLTWSGHEPFHVPAFTVDAVDTTGAGDVFHGGYGYGILQGWSVRETVVFASAMAAMKCRQVGAQQGIPRLPDVLEFLTRRTITVLSNPQTEGHHHHHH”, “soluble”; with “MSLHRLNLNGYEPDRHHEAAVAFCIHAGTDELTSPVHQHRKGQLILALHGAITCTVENALWMVPPQYAVWIPGGVKHSNQVTANAELCFLFIEPSAVTMPTTCCTLKISPLCRELILTLANRTTTQRAEPMTRRLIQVLFDELPQQPQQQLHLPVSSHPKIRTMVEMMAKEPVEWGSLGQWAGFFAMSERNLARLIVKETGLSFRQWRQQLQLIMALQGLVKGDTVQKVAHTLGYDSTTAFITMFKKGLGQTPGRYIAGLTTVSPQSAKPDPREGHHHHHH”, “soluble”.

Turning to “MSLHSYDYDAIVIGSGPGGEGAAMGLVKQGARVAVIERYQNVGGGCTHWGTIPSKALRHAVSRIIEFNQNPLYSDHSRLLRSSFADILNHADNVINQQTRMRQGFYERNHCEILQGNARFVDEHTLALDCPDGSVETLTAEKFVIACGSRPYHPTDVDFTHPRIYDSDSILSMHHEPRHVLIYGAGVIGCEYASIFRGMDVKVDLINTRDRLLAFLDQEMSDSLSYHFWNSGVVIRHNEEYEKIEGCDDGVIMHLKSGKKLKADCLLYANGRTGNTDSLALQNIGLETDSRGQLKVNSMYQTAQPHVYAVGDVIGYPSLASAAYDQGRIAAQALVKGEANAHLIEDIPTGIYTIPEISSVGKTEQQLTAMKVPYEVGRAQFKHLARAQIVGMNVGTLKILFHRETKEILGIHCFGERAAEIIHIGQAIMEQKGGGNTIEYFVNTTFNYPTMAEAYRVAALNGLNRLFEGHHHHHH”, the “soluble on expression in E. coli” value is “soluble”. In the case of “MSLIAIYVRVSTEEQAIKGSSIDSQIEACIKKAGTKDVLKYADEGFSGELLERPALNRLREDASKGLISQVICYDPDRLSRKLMNQLIIDDELRKRNIPLIFVNGEYANSPEGQLFFAMRGAISEFEKAKIKERTSSGRLQKMKKGMIIKDSKLYGYKFVKEKRTLEILEEEAKIIRMIFNYFTDHKSPFFGRVNGIALHLTQMGVKTKKGAKVWHRQVVRQILMNSSYKGEHRQYKYDTEGSYVSKQAGNKSIIKIRPEEEQITVTIPAIVPAEQWDYAQELLGQSKREGHHHHHH”, the “soluble on expression in E. coli” value is “soluble”. As to “MSLIDIHNHILPNIDDGPTNETEMMDLLKQATTQGVTEIIVTSHHLHPRYTTPIEKVKSCLNHIESLEEVQALNLKFYYGQEIRITDQILNDIDRKVITGINDSRYLLIEFPSNEVPHYTDQLFFELQSKGFVPIIAHPERNKAISQNLDILYDLINKGALSQVTTASLAGISGKKIRKLAIQMIENNLTHFIGSDAHNTEIRPFLMKDLFNDKKLRDYYEDMNGFISNAKLVVDDKKIPKRMPQQDYKQKRWFGLEGHHHHHH”, the “soluble on expression in E. coli” value was “soluble”.

In the case of “MSLIDKSSEIARFSGKGILITPKTLEKPLLKWEKLEIILYKDKIVFEFVDKTIEVGVEDIEDVGAELPKKVIDIAKSTLEDITYHSSIIIKSKEFGNVMVGFAPETSIYGKAPIDNFLRKLFYILLNKKEVKILYNAGENSENTKWENGFLTFIKKRIKDGLVTKIEYRLVVEILDNEDSKIYDIFSNIKDVEIEEKDVDGEIEPVLKILQVKDGKDIISYLYTKDKKVRLFILRYMVILLDYKYIGILRYLQETVEEGHHHHHH”, the “soluble on expression in E. coli” value is “soluble”. On to “MSLILFFYFMVLSEACMRTVAPEDVYISSTFPFEDFTTEAVVTTDSSTISQLTTETTMETVETHIFYVTCKNRYPISNRNCLINRHTDDFFCFILPVDACMRTVPPEDVYISITLPYEDFTTESNEIAVTTDSSTVPQLVTETTEIPTATTTPGWSSKTELHWKISKILNTK”, for which the “soluble on expression in E. coli” value is listed as “not soluble”. As for “MSLIPIVASSPSPLISGDGDDALRQIGLLHERSAPLGAMMIDHGPDIGERSPVFSMTTIDGVPVTVGRAVSPGRPSLLMFTGPSCPICQKLLPIIRSVAATEGADVILISDGTQAEHREFLRNHPLDGEHYVVSAEIGMRYQVSKVPYGVLLDKDGVIQAKGLCNTREHVESLFETTRVGHSTLQNFLKHGVEDASKHEGHHHHHH”, the “soluble on expression in E. coli” value is “soluble”.

On to “MSLIRPQLDDIQTAQAQEKNLLNEFREKQSKLRNLQQYQHQLEEMRASFNQQLTQLPKESEIPGLVEDINMTGVNSGLKFKNIRLENEVKQEFFIEQPISIEATGDYHAFGAFVSGIAALPRIVTLHDFVIEAKQSKEKTDIPEVDYAVKAKTYRYIGVDEQGNASAVQANTSTTTPAQGGTPEGHHHHHH”, for which the “soluble on expression in E. coli” value is “soluble”. With “MSLIVVKIGGRVVKNSLDKIILDILNINDKVILVHGGGDIVTDYTKRLGIEPVFVTSPEGIRSRYTTKEELEVYIMAMSLINKSITSKLCSLGKNAIGITGVDGGLLLAERKKRIVVIDERGKKRIIEGGYTGKVKEVRSEIINHLVKLFDIIVVSPIALDVEERTPLNIDGDQAAFAISKALRANVLILLSDVEGVLVEGKVINRLTPSEAKELSKKIGPGMNRKLLMAAESVENGVNKVIIGSGVKDRPIINALELNGTVIANGEGHHHHHH” the entry was “soluble”. With “MSLIYFETERLIARDYLERDYLPFSQMNADEEVMKYFPARLTQVESNALLDRNQKELTSLGYGLFAIEVKSTNEFIGFTGLHEATFEAEFTPCIEIGWRLKRSAWNQGFATEAALGVLAFAKGITAINEIYSFTATCNKPSEKVMRKIHLTKIADFEHPALINGNPLKPHVLYKAEGHHHHHH” the entry was “not soluble”. As for “MSLKDITLQVALPKFGYKENVKSFVLEVIAKDSSFWNFFSGNEARKQIAVLVDNTAPKINIISNSYQIEQGGAGAVVFKADDANLDKVYIETNKGKIFKATPYVKEGYYAALIAWDARDEEFRAFVIATDKAGNISKERIRYYFVNRKYRVSNINLTDKFLDGKIENLANQYAPKDNNLNRYEKFKFVNETLRNSNEKLIHEITSKVPEEKIDNFDLNLFLPLKNGMKVADFADHRYYSYNGQFVSDSYHMGLDLASVAQAPIISNNAGKVVFAAENGIYGLNLIVYHGFGVYSLYGHCSSKNVDLDEMINKQSIIGKTGTSGLALGDHLHFGVLVQGVETRPEQWQDKKWIENNIYNVLNDGKKIILGKNEGHHHHHH”, the “soluble on expression in E. coli” value is recorded as “not soluble”.

In the case of “MSLKDKILTIDVGTGSTRAAIVRIDGAMIGFAQREYEQTTPRAGWSEQAPSLWWQAACDCIREVLYRYPETAAQIAVIGACGQMHGTVLLDDRGELVEDRALLWNDKRSQPQVDAFNAREGWEKWLAHLNNPPAAAWPAFKLAWWRENHPDRWSQLAKVLMPKDYINFMLTGAMATDYSEASCYFLMDSETRSWSSQACETFGLRVDQLPELKLSSDIIGQVTQPAADLTGLPAGIPVVAGTSDMAASLLGSGVYEPGMASDSTGTSTLMTVVSPRPLHHPLVNNLHLANAAWGGFTILDAGGDAVRWARLALADNQITHPQLLQEAAAVPAGAEGLLFLPYLTGERLAEHTNSRAQFFGLQRKHRRGHLFRAVLEGVAFASWRNLRQLQKCGQYPQQMIASGGGARSSLWLEIKASAYNLPILSTRNQENGVTGCGIIAGVGVGLYADFASGVRQTVQFEKLISPDPLLRDYYHACCELFDTLYRQSAALYDRLDALSEGHHHHHH”, the “soluble on expression in E. coli” value was “soluble”. For “MSLKELEEIRKEIDEVDKIITELFEKRMNLVMEVAEYKEKNSIPVSDSKREKKVIDKNIGYLKNKEYSEVLKEFYINFMNLSKKLERKRIYNEEKTSVNTSIYGLIGEKLGHSHSSYIHKLIFEKVGIKGIYNLFEVPKEKLKESVDTFKIIKCGGLNVTIPYKVEVMKELYEISEKARKIGAVNTLKFSREGISGFNTDYIGFGKMLSKFRVEIKNNICVVLGSGGAARAVLQYLKDNFAKDIYVVTRNPEKTSEIYGEFKVISYDELSNLKGDVIINCTPKGMYPKEGESPVDKEVVAKFSSAVDLIYNPVETLFLKYARESGVKAVNGLYMLVSQAAASEEIWNDISIDEIIVDEIFEVLEEKIKSEGHHHHHH”, the “soluble on expression in E. coli” value is recorded as “soluble”.

In the case of “MSLKFAVLVFPGSNCDRDMYNAAIKSGVDAAYVDYRETTLDGFDGVLIPGGFSFGDYLRSGAMASVAPIIKEVKRFAKEGKPVLGVCNGFQILTEIGLLPGALLHNDSHLFISRNETLKITNNQTPFTHLYVKNENVVYPVAHGEGHYYCTDEIYRELNDNNQIILKYTNNPNGSYEDIAGIVNKEGNVCGMMPHPERALETLLGTNSGVKLFESMVKSWREQNEGHHHHHH”, the “soluble on expression in E. coli” value is on record as “soluble”.

Turning to “MSLKFVTIRDIAREAGVSINTVSRALNDKPDINVETKKKVLEVADRLGYIRDATAVSLRYGLTRVIGVILEDSSNPFYSEVLKGIEMAAKKKKFNVIFMNTERSYELENEAIKTMIGRRVDGMIISPTQEKCDDIKLLSEKGIPFVVLGVHFDELNVPEIYTDDEKGGYLATKHLIEIGRRRILFLNGFTYKSVAKMRLNGYRKALKEFGLEYDKSLVHEIEEGYENAYNKVKELLKKGIKFDSIFCFNDVFAIGAIGALKEEGIKVPQDIAVVGYDDIYFSKFISPSLTTVKIDKILEGKLAFEMLHGILTKKTGKNVKNVLDVELIVRESTIDKIGEGHHHHHH”, the “soluble on expression in E. coli” value is reported as “soluble”.
